Key:
Details in all cases: protein: recombinant; tags: N-terminal His; chain copies: 2; label: 32P; blunt
UvrA G502D = target: T1, UvrA G502D (Escherichia coli, UniProt P0A698 1-940, G502D); assay: EMSA; 2 mM ATP; binding detected at <300 nM UvrA; EMSA, 1 nM 32P-labeled 50 bp duplex, 2 mM ATP, 20 min at 37°C; buffer, salt and pH not given in the material
T1 sequence: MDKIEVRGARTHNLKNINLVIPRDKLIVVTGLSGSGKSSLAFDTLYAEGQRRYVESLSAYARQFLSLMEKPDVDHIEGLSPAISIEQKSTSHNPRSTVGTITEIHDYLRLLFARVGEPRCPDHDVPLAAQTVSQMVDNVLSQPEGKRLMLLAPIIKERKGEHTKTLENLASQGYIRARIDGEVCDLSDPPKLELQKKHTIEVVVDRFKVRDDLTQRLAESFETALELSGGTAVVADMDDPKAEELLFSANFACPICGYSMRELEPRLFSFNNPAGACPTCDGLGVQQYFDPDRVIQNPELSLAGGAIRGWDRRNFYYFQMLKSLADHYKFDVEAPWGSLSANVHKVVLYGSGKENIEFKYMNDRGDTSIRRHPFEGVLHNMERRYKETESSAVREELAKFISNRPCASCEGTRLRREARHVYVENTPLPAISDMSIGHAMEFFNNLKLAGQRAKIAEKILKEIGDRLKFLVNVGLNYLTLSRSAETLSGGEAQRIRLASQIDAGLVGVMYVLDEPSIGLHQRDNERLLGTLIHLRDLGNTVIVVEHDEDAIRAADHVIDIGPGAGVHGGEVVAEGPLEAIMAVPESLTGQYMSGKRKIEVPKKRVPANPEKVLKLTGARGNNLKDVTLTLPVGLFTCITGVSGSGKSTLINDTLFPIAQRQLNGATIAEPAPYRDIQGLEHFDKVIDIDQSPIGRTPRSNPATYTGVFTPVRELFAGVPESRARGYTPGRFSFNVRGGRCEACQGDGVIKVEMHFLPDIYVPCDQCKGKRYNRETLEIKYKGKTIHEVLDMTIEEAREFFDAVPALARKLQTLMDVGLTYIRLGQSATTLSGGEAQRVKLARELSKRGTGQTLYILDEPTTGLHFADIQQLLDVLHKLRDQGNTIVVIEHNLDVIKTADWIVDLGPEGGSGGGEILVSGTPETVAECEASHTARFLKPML

UvrA K37A = target: T2, UvrA K37A (Escherichia coli, UniProt P0A698 1-940, K37A); assay: as above
T2 sequence: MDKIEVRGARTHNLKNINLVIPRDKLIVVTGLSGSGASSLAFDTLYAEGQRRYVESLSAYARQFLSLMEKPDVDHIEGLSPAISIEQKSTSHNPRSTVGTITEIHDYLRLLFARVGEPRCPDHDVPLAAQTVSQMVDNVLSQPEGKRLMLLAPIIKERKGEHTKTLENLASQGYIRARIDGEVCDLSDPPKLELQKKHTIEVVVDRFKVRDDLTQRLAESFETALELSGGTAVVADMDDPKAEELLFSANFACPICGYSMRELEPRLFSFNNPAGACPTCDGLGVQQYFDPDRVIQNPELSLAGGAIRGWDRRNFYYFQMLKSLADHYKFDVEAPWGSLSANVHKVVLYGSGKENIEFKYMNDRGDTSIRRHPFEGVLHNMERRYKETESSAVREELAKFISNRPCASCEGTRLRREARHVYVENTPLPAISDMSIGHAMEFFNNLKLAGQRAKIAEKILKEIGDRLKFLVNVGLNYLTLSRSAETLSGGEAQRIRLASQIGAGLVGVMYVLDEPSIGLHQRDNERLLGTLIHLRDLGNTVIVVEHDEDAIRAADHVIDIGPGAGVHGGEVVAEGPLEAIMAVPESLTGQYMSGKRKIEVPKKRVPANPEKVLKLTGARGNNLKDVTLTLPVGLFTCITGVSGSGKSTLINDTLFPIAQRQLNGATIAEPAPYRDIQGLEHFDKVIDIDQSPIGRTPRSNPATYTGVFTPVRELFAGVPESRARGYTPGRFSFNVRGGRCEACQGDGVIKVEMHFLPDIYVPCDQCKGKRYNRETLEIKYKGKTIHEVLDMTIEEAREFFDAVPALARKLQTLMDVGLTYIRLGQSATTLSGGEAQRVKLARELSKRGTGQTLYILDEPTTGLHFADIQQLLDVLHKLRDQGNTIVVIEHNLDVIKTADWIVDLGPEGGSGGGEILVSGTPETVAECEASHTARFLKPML

[1] = target: T3, UvrA R712A R722A R724A R730A (Escherichia coli, UniProt P0A698 1-940, R712A;R722A;R724A;R730A); assay: EMSA; 2 mM ATP; no binding detected at 800 nM UvrA; EMSA, 1 nM 32P-labeled 50 bp duplex, 2 mM ATP, 20 min at 37°C; buffer, salt and pH not given in the material
T3 sequence: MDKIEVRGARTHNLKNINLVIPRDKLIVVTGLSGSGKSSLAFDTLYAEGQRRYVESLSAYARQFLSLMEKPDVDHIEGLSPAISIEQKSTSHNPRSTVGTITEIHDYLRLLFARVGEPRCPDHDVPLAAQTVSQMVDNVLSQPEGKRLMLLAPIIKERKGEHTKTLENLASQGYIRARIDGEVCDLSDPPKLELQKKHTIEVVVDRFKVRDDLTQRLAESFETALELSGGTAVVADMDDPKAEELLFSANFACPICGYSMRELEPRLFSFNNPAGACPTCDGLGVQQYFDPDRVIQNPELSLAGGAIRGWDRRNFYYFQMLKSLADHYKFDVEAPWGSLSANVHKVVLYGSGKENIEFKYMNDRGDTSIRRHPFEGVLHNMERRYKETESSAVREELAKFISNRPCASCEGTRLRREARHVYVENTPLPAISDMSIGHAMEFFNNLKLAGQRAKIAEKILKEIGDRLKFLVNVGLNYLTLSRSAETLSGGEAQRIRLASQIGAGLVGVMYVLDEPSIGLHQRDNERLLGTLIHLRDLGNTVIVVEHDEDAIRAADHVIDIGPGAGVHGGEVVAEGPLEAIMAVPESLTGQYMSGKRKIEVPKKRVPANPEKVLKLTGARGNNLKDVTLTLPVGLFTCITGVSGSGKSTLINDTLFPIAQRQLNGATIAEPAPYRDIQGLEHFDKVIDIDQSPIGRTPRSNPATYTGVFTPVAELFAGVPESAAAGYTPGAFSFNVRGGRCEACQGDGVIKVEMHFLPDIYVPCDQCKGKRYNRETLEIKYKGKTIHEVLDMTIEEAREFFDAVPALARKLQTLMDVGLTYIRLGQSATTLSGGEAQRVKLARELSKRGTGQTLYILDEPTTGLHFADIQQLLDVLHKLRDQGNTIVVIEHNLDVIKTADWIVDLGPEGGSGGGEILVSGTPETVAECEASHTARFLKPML

UvrA WT = target: T4, UvrA WT (Escherichia coli, UniProt P0A698 1-940); assay: EMSA; 2 mM ATP; EMSA, 1 nM 32P-labeled 50 bp duplex, 2 mM ATP, 20 min at 37°C; buffer, salt and pH not given in the material
T4 sequence: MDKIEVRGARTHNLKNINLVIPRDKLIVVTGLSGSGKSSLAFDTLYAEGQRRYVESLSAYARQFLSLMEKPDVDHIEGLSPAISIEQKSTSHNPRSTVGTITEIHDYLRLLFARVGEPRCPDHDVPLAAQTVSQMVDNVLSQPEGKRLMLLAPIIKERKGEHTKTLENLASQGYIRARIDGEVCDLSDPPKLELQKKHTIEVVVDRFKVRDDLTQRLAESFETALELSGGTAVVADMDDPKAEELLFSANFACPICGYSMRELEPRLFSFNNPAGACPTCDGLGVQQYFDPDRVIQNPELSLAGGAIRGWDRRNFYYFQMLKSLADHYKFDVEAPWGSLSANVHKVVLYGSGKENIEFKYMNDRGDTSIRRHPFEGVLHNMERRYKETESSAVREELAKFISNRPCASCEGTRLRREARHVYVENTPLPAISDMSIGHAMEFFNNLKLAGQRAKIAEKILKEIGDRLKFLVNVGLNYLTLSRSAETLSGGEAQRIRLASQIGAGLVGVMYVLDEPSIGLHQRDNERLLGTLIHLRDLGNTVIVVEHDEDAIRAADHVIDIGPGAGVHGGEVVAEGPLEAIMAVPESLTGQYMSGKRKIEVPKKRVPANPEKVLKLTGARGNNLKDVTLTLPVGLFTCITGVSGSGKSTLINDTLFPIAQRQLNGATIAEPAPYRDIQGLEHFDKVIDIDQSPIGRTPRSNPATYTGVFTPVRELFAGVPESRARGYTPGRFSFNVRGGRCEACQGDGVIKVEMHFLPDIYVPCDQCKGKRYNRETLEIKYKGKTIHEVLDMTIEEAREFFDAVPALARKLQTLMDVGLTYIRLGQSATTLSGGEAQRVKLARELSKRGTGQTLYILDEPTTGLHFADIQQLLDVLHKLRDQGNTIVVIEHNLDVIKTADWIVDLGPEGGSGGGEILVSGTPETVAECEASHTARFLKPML

B1: 50 bp duplex with single FldT adduct (dsDNA)
DNA 1: CTAGGATCGGATAGCGCATGACAGTGACTGGATCGACAGCGTCGTATGAG
DNA 2: CTCATACGACGCTGTCGATCCAGTCACTGTCATGCGCTATCCGATCCTAG
modifications: fluorescein-dT (FldT) at position 29 of strand 1
binding result (UvrA G502D): binds
binding result (UvrA K37A): binds
binding result [1]: no binding
Kd (UvrA WT): 5.6 ± 1 nM

From article PMC3025350, “Regulation and Rate Enhancement during Transcription-Coupled DNA Repair”
